# Patent US20200010516A1
# Target: integrin αIIbβ3 on platelets of healthy donors (UniProt P08514)
# Assay: cell-based or functional assay
substance,measurement,value
^39SRAGK-^46RIPRGDMP-^66RYH (Rho wild-type) (from UniProt P30403 408-475) (ligand),"IC50, Platelet Aggregation",0.0832 µM
